Assay results reported in the supplement of paper PMC12667976.
± gives the standard error.

B1: library; numbered along this chain (parent)
chain: MATDAALRRLLRLHRTEIAVAVDSAFPLLHALADHDVVPEDKFQETLHLKEKEGCPQAFHALLSWLLTQDSTAILDFWRVLFKDYNLERYGRLQPILDSFPKDVDLSQPRKGRKPPAVPKALVPPPRLPTKRKASEEARAAAPAALTPRGTASPGSQLKAKPPKKPESSAEQQRLPLGNGIQTMSASVQRAVAMSSGDVPGARGAVEGILIQQVFESGGSKKCIQVGGEFYTPSKFEDSGSGKNKARSSSGPKPLVRAKGAQGAAPGGGEARLGQQGSVPAPLALPSDPQLHQKNEDECAVCRDGGELICCDGCPRAFHLACLSPPLREIPSGTWRCSSCLQATVQEVQPRAEEPRPQEPPVETPLPPGLRSAGEEVRGPPGEPLAGMDTTLVYKHLPAPPSAAPLPGLDSSALHPLLCVGPEGQQNLAPGARCGVCGDGTDVLRCTHCAAAFHWRCHFPAGTSRPGTGLRCRSCSGDVTPAPVEGVLAPSPARLAPGPAKDDTASHEPALHRDDLESLLSEHTFDGILQWAIQSMARPAAPFPS

Variants of: B1
Assay: AIRE transcriptional activation functional score (insulin promoter-GFP; nonsense median 0, synonymous median 1) (normalised score); higher = higher AIRE activity (more reporter activation)
Conditions: with insulin promoter-GFP reporter in HEK293
In short: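 Integration of codon-optimized AIRE NNN-codon libraries (three regions) by Bxb1 recombinase was done in Flp-In T-REx HEK293 landing-pad cells containing an insulin core promoter-GFP reporter. Tile-sequencing covered the top 10% GFP cells and the unselected integrants, drawn from mCherry+, BFP− cells sorted at day 7 and grown 7 days. Functional score means the enrichment of a variant in select versus non-select, minus that of wild type. Variants with at least 10 counts per million in non-select were rescaled to nonsense median 0 and synonymous median 1, and the biological replicates were averaged.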

Variant | AIRE transcriptional activation functional score
A191E | 0.164 ± 0.45
V345D | 1.02 ± 0.18
R9C | -0.35 ± 0.18
R9D | 0.539 ± 0.48
K501Q | 1.08 ± 0.11
A496H | 1.29 ± 0.15
P326T | 0.923 ± 0.14
A452F | 0.934 ± 0.055
R127K | 0.758 ± 0.21
M194G | 0.75 ± 0.19
H14P | -0.256 ± 0.64
H14R | -0.348 ± 0.51
Q57I | 0.761 ± 0.91
Q57F | 0.269 ± 0.08
L255P | 1.03 ± 0.26
D36S | 0.294 ± 0.28
D198I | 0.948 ± 0.15
T480D | 0.65 ± 0.2
T480W | 1.13 ± 0.096
A142G | 1.29 ± 0.26
P367I | 1.46 ± 0.18
P367T | 1.17 ± 0.21
P367F | 1.13 ± 0.083
F43A | -0.325 ± 0.25

Variant | AIRE transcriptional activation functional score
P101G | 0.302 ± 0.13
N427S | 1.1 ± 0.39
N427W | 1.3 ± 0.051
P407F | 1.2 ± 0.22
M184W | 0.275 ± 0.042
M184Y | 0.481 ± 0.1
D288R | 1.08 ± 0.34
C322E | 1.77 ± 0.11
P481W | 1.39 ± 0.17
P481M | 1.29 ± 0.04
E508A | 0.896 ± 0.45
A25N | -1.11 ± 0.26
S545F | 1.04 ± 0.1
R494Q | 0.696 ± 0.14
S185T | 1.56 ± 0.21
W531E | -0.39 ± 0.13
W531K | 0.178 ± 0.088
T3G | 0.0107 ± 0.19
D439H | 1.32 ± 0.28
I330L | 0.906 ± 0.38
S24T | -0.0952 ± 0.28
G208W | 0.199 ± 0.079
G408Q | 1.29 ± 0.12
G408E | 1.05 ± 0.043

Variant | AIRE transcriptional activation functional score
F236M | -0.434 ± 0.082
A343K | 0.609 ± 0.059
A138P | 0.857 ± 0.26
P422G | 1.53 ± 0.095
P422Y | 1.42 ± 0.07
T391D | 0.889 ± 0.36
S476R | 0.828 ± 0.26
Q290Y | 1.48 ± 0.15
A284M | 0.962 ± 0.03
G527R | 0.305 ± 0.14
T468S | 0.945 ± 0.19
E298G | 1.13 ± 0.27
P39R | 0.0519 ± 0.47
P39G | -0.241 ± 0.19
A134M | -0.832 ± 0.19
P166E | -0.713 ± 0.29
E347Y | 1.43 ± 0.062
A399H | 1.63 ± 0.058
A505E | 0.669 ± 0.15
G431Q | 0.86 ± 0.29
G431A | 1.23 ± 0.28
A261P | 1.06 ± 0.19
A432I | 0.534 ± 0.21
A432W | 1.88 ± 0.094

Variant | AIRE transcriptional activation functional score
G313P | 0.756 ± 0.37
G313Y | 1.16 ± 0.26
R89H | 0.994 ± 0.18
C223I | 0.0416 ± 0.48
P119K | 1.36 ± 0.051
V22M | -0.505 ± 0.17
V22F | -0.0603 ± 0.13
K102W | 1.77 ± 0.18
K102Q | 2.65 ± 0.86
L67V | 0.638 ± 0.51
L67F | -0.0388 ± 0.21
S464N | 0.563 ± 0.36
A461L | 1.28 ± 0.14
A461I | 0.816 ± 0.25
N295C | 1.01 ± 0.33
R456A | 1.16 ± 0.58
R456C | 1.3 ± 0.088
P95F | 1.19 ± 0.25
E17F | -0.224 ± 0.25
A21R | 0.00134 ± 0.6
A21V | 0.278 ± 0.23
E136N | 0.529 ± 0.18
E136A | 1.16 ± 0.46
G440D | 0.799 ± 0.89

Variant | AIRE transcriptional activation functional score
R433H | 0.569 ± 0.21
E307C | 0.732 ± 0.45
L177Q | 0.719 ± 0.33
P315Y | 0.976 ± 0.27
H454G | 0.0883 ± 0.26
G242I | -0.56 ± 0.23
G242W | 0.936 ± 0.021
P162N | -1.7 ± 0.52
T68G | 0.848 ± 0.95
T68N | 0.581 ± 0.61
S287T | 1.44 ± 0.12
E359C | 1.11 ± 0.15
E359S | 1.27 ± 0.24
C449W | 0.0652 ± 0.069
R445N | 1.25 ± 0.17
W455D | 0.9 ± 0.14
D502A | 0.926 ± 0.15
S241R | 0.436 ± 0.41
C457T | -0.0599 ± 0.15
M536E | 0.588 ± 0.14
M536T | 1.15 ± 0.46
L385I | 0.603 ± 0.3
E517G | 0.693 ± 0.054
L11D | 0.606 ± 0.6

Variant | AIRE transcriptional activation functional score
R174P | 0.727 ± 0.47
C475A | 0.119 ± 0.18
P492K | 0.595 ± 0.036
P361K | 1.12 ± 0.16
K165R | 0.872 ± 0.69
K165Y | 0.91 ± 0.26
S535G | 1.74 ± 0.088
L488K | 1.07 ± 0.24
V301W | 2 ± 0.097
L146E | 0.882 ± 0.26
A170F | 1.69 ± 0.33
R336Q | 0.346 ± 0.19
R336G | 1.33 ± 0.33
E53M | 0.544 ± 0.27
E53I | 1.49 ± 0.51
E53R | -0.133 ± 0.6
E53L | 1.14 ± 0.54
Y231D | 0.734 ± 0.077
A532S | 0.141 ± 0.15
A532P | 0.00951 ± 0.22
L308C | 1.43 ± 0.15
T504D | 1.79 ± 0.077
L158P | 0.723 ± 0.55
P233R | 1.18 ± 0.23

Variant | AIRE transcriptional activation functional score
P233G | 1.15 ± 0.044
S156Q | 0.543 ± 0.33
S156Y | 0.901 ± 0.32
H30D | 0.0821 ± 0.2
A404L | 1.26 ± 0.15
K159C | 1.14 ± 0.28
K131Y | 0.0539 ± 0.21
A429G | 0.724 ± 0.25
A429L | 1.06 ± 0.12
Q426W | 1.64 ± 0.042
Q426D | 0.796 ± 0.2
L341W | 1.32 ± 0.023
S324Q | 0.407 ± 0.052
S324I | 1.06 ± 0.23
D76G | -0.331 ± 0.51
C419T | 1.2 ± 0.26
G333M | 1.72 ± 0.15
V206A | 0.817 ± 0.31
I528H | -0.237 ± 0.12
F318L | 1.05 ± 0.18
A144I | 0.989 ± 0.23
F459P | 0.572 ± 0.056
T151E | 1.13 ± 0.21
